The text below walks through data of the nanobody polyreactivity screen of Harvey et al. (2022).

A short description of this data set: yeast display, Sf9 membrane polyspecificity reagent, FACS + sequencing; frameworks hold sequencing errors. The method in brief:
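A nanobody's polyreactivity label depends on the gate it was sorted from. Yeast display cells were stained with 10% biotinylated, detergent-solubilized Sf9 membrane reagent for 1 hour at 4 °C, enriched on streptavidin microbeads and sorted by FACS. The low and high (top ~1%) gates were set on anti-HA fluorescence for expression and streptavidin fluorescence for reagent binding.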
As for “QVQLVESGGGLVQAGGSLSLSCAASGSTFYYNAMGWYRQAPGKEREFVAAINWRGGSTYYADSVKGRFTISRDNAKNTVYLQMNSLKPEDTAVYYCSAEEASTYYYVRSGYDYHFWEMYSWGQGTQVTVSS”, the “polyreactivity (PSR sort gate)” value is “low polyreactivity”.
For “QVQLVESGGGLVQAGGSLSLSCAASGSTMATYTMGWYRQAPGKERELVAAISFGGSTYYADSVKGRFTISRDNAKNTVYLQMNSLKPEDTAVYYCAVYGDSYWGAYYYSDGYWGQGTQVTVSS” the value was “low polyreactivity”; for “QVQLVESGGGLVQAGGSLSLSCAATGSTFAQNAMGWYRQAPGKERELVAAISRRGGSTYYADSVKGRFTISRDNAKNTVYVQMNSLKPEDTAVYYCAADQPVRQHHRDDYWGQGTQVTVSS”, “low polyreactivity”.
Turning to “QVQLVESGGGLVQAGGSLSLSCAAYGGIFPENAMGWYRLAPGKERELVAAMSRSGSSTYYADSVKGRFTISRDNAKNTVFLQMNSLKPEVTAVSYCAARGVKWGQGSQVTVSS”, the “polyreactivity (PSR sort gate)” value is listed as “high polyreactivity”.
For “QVQLVESGGGLVQAGGSLSLSCADSGLTFRKYAMGWYRQAPGKERELVAAISWSGGSTYYANSVKGRFTISRDNAKNTVYLQMNSLKPEETAVYYCAAVPVHTGSMYWGFTNGYDYWGQGTQVTLSS” the value was “low polyreactivity”.
Next, “QVQLVESGGGLVQAGGSLSLSCDASGFTFRYYFMGWYRQAPGKERELVAAISYTGRTTYYADSVKGRFTISRDNAKNTVYLQMNSLKPEDTAVYYCASGAIGYNGKAYGMDYWGQGTEVTVSS”: “high polyreactivity”; “QVQLVESGGGLVQAGGSLSLSCDASGRIFVVKAMGWYRQAPGKERELVAAITRRGGSTYADSVKGRFTISRDNAKNTVYLQMNSLKPEDTAVYYCNAESYYGIFSYKYDYWGQGTQVTVSS”: “high polyreactivity”; “QVQLVESGGGLVQAGGSLSLSSAASGRTFTFNTMGWYRQAPGKERELVAAIDGDGTTNYADSVKGRFTISRDNAKYTVYLQMNSLKPEDTAVYYCAADFLYSFWYEPTFDYWGQGTQVTVSS”: “low polyreactivity”.
Regarding “QVQLVESGGGLVQAGGSLSLSWAASGFILKINTMGWYRPAPRKERDLVADITESGGNTYADSEKWRFTISRDNAKNTVYLQMNSLKPEVTAVYYCNDDIYISPLVQVSKGYDYWGQGTQVTVSS”, the “polyreactivity (PSR sort gate)” value was “low polyreactivity”.
For “QVQLVESGGGLVQAGGSLSLTCAASGITFPRNAMGWSRQAPGKERELVAAISARGGNTYYADSVKGRFTISRDNSKNTVYLQMNSLKPEDTAVYYCNALGSSYSEPSEYDYWGQGTQVTVSS” the value was “low polyreactivity”; for “QVQLVESGGGLVQAGGSLSLTCAASGITFYLYAMGWDIQAPGKERELVAAISSGSRTTYADSVKGRFTISRDNEKNTVYLQMNSLKPEDTAFYYCAAAYWNWGYYYSYDYWGQGTQVTVSS”, “high polyreactivity”; for “QVQLVESGGGLVQAGGSLSLTCDAYGRTIYKYGMGWYREAPGKERDLVARINSNGGSTYYADSVKGRFTISRDNAKNTVYLELISLKPEDTAVYYCARSYVRSYGYYYWGQGTQVTVSS”, “low polyreactivity”.
Next, “QVQLVESGGGLVQAGGSRLSCAASGLIFIWYTMGWYRQAPGKERELVAAIDSSGGNTYYADSVKGRFTISRDNAKNPVYLQMNSLKPAETAVYYCATDVGHGAGNLMGYWGQGTQVTVSS”: “low polyreactivity”.
Next, “QVQLVESGGGLVQAGGSRRLSCAASGFFFRNYAMGWYRQAPGKEMELVAVITSSGGSTYYADSVKGRFTISRDNAKNTVYLQMNSLKPEDTAVYYCNKPGLRSGPRYDYWGQGTQVTVSS”: “high polyreactivity”; “QVQLVESGGGLVQAGGSRRLSCAASGFIFSGYAMGWYRQERGKERELVAAITRSGSRTYYADSVKGRFTISRDNAKNTVYLQMNSLKPEDTAVYYCAKDKPKYGISTIDYWGQGTLVTVSS”: “high polyreactivity”.
For the sequence “QVQLVESGGGLVQAGGSRRLSCAASGFIFTTYTRGWYRQATGTERELVAAIRSDGVRTYYADSVKGRFTISRDNAKNTVYLQMNSLKPEDTAVYYCNRVCAVRIGAGDYWGQGTQVTVSS”, the “polyreactivity (PSR sort gate)” value was “high polyreactivity”.
Next, “QVQLVESGGGLVQAGGSRRLSCAASGITFGWYAMGWYRQAPGKEMEWVATISQSGTSTYYADSVKGRFTISRDNAKNTVYLKMISLKPEDTAFYYCAADYIRGYYFRVRLEVDYWGQGTQVTVSS”: “low polyreactivity”; “QVQLVESGGGLVQAGGSRRLSCAASGITFSRYAMGWYRQAPGKERELVAAITSSGGSTYYADSVKGRFTISRDNAKNTVYLQMNSLKPEDTAVYYCAATSYYTREQYYYWGQGTQVTVSS”: “high polyreactivity”; “QVQLVESGGGLVQAGGSRRLSCAASGLIFVHYTMGWYRQATGKERELVAAITSSGGSTYYAYSVKGRFTISRDNAKNTVYLEMNSMKPEDTAVYYCATKSYSPTRTRFYYWGQGTQVTVSS”: “high polyreactivity”.
For “QVQLVESGGGLVQAGGSRRLSCAASGRIFTYYAMGWYRQAPGKERELVAAISSGGSTYYADSVKGRFTISRDNAKNTVYLQMNSLKPEDTAVYYCAAAGGYYGVNWRGDSWGQGTQVTVSS” the value was “high polyreactivity”; for “QVQLVESGGGLVQAGGSRRLSCAASGRTFEGNAMGWYRQAPGKERELVAAITSGGRTNYADSVKGRFTISRDNAKNTVYLQMNSLKPEDTAVYYCAVDTRDRSTYFPGQAYDFWGQGTQVTVSS”, “low polyreactivity”; for “QVQLVESGGGLVQAGGSRRLSCAASGRTFSKNAMGWYRQAPGKERELVAAISGSGGSTYYADSVKGRFTISRDNAKNSVYLQMNSLKPEDTAVYYCAADGTGFRYLRYDYWGQGTQVTVSS”, “high polyreactivity”.
For “QVQLVESGGGLVQAGGSRRLSCAASGRTFYLYAMGWYIQARGQERELVAANTTSGGSTYYADSVKGRFTISRDKAKNTVYLQMHSLKPEDTAVYYCNKDLSTTKFDDWGQGTQVTVSS” the value was “low polyreactivity”; for “QVQLVESGGGLVQAGGSRRLSCAASGRTLGHNAMGWYRQAPGKERELVAAITSRGGTTYADSVKGRFTISRDNAKNTVYLQMNSLTPEDTAVYYCAARGYAYSRYYFWGQGTQVTVSS”, “high polyreactivity”; for “QVQLVESGGGLVQAGGSRRLSCAASGSIFYLYAMGWSRQAPGKERELVATITWSGGSTYYADSVKGRFTISRDTAKNTVYLQMNSLKPEDTAVYYCAATALEWYPAVYNQYYYWGQGTQVTVSS”, “low polyreactivity”.
For the sequence “QVQLVESGGGLVQAGGSRRLSCAASGSILSKYTMGWYRQATGKERELVAVISSSGASTYYADSVKGRFTISRDNAKNTVYLQMNSLKPEDTAVYYCATYPWYSKYRYDHWGQGTQVTVSS”, the “polyreactivity (PSR sort gate)” value was “high polyreactivity”.
“QVQLVESGGGLVQAGGSRRLSCAASGSTFYPYAMGWYRQAPGKERELVAAITWSGGRTYYADSVKGRFTISRDNAKNTVYLQMNSLKPEDTAVYYCAADRPDRWVDYWGQGTQVTVSS”: the “polyreactivity (PSR sort gate)” value is recorded as “low polyreactivity”.
Turning to “QVQLVESGGGLVQAGGSRRLSCAPSGSIIGEYAMGWYRQAAGKERELVAAINVNGGRTYYADSVKGRFTISRDNAKYTVYLQMNRLKPEETAVYYCNAGYYLTLDYWGQGTQVTVSS”, the “polyreactivity (PSR sort gate)” value is recorded as “high polyreactivity”.
For “QVQLVESGGGLVQAGGSRRLTCAASGSIFFYNAMGWYRQATGKERELVAAISSATSTYYADSVKGRFTISRDNAMISVYVHMNSLTEEDTAVYYCAADFSDGYFWYDYWGQGTQVTVSS” the value was “high polyreactivity”; for “QVQLVESGGGLVQAGGSRRVSCAASGITFPNYAMGWYRQAPGKERELVAAITGSGGSTYYADSVKGRFTISRDNAKNTVYVQMNSLKPEDTAVYYCNAVYYRYIRGFYYWGPGTQVTVSS”, “high polyreactivity”.
Next, “QVQLVESGGGLVQAGGSVRLSCAASGRIFRYYMGWYRQAPGKEREFVAAITTRGGRTYYADSVKGRFTISRDNAKNTVSLQMNSLKPEDTAVYYCAAGYNGAIIALRAYDYWGQGTQVTVSS”: “high polyreactivity”.
For “QVQLVESGGGLVQAGGSVRLSCAASGSIFNANTMGWYRQAPGKERELVAVITSGGTTNYADSVKGRFTISRDNAKNTVYLQMNSLKPEDTAVYYCAVRISGNWYDYWGQGTQVTVSS” the value was “low polyreactivity”.
On to “QVQLVESGGGLVQAGGSVRLSCAASGSTSAYAMGWYRQAPGKEREFVAAIRFSAGSTYYADSVKGRFTISRDNAKNTVYLQMNSLKPEDTAVYYCAASYSVIFGYFPDYYWVVEYDYWGQGTQVTVSS”, for which the “polyreactivity (PSR sort gate)” value is given as “high polyreactivity”.
For “QVQLVESGGGLVQAGGTIRISSAPSGRTLGCNAMGRSRQAPGKEWELVSAISYSGGDTTYADSVKGRFTISRDKAKNTVYLQMNSLKPEDTAVYYCAARGDYYVYAYNRRFVYLGQGTQVTVSS” the value was “low polyreactivity”.
Next, “QVQLVESGGGLVQAGGTLPLTCAASGSTYYVYAMGCDRQAPGKEREFVAAITGSDGSTYYADSVMGRFTISRDNAKNTVYLQMNSLKPEDTAVYYCAADYYLQNYETGYGYWGQGTQVTVSS”: “low polyreactivity”; “QVQLVESGGGLVQAGGTLRLRCAASGFTFRYYVMRWYRQAPGKERELVAAITSGGSTNYADSVKGRFSISRDNAQNTVYLLMNSLKPEDTAVYYCAAGLSYRHNYWGQGTQVTVSS”: “low polyreactivity”.
For “QVQLVESGGGLVQAGGTLRLSCAASGFIFGINAMGWYRQAPGQERELVAAIATGDRTNYADSVTGRFTISRDNAKNTVYLQMNSLKPEHTAVYYCAAGVHWDRGDYWGQGTQVTVST” the value was “low polyreactivity”; for “QVQLVESGGGLVQAGGTLRLSCAASGFIINRYAMGWYRQPPGKERELVAAISWSGGRTYYADSVKGRFTISRDNAKNTVSLQMNSLKPEDTAVYYCAADSYTSLDGRDYWGQGTQVTVSS”, “high polyreactivity”; for “QVQLVESGGGLVQAGGTLRLSCAASGFIISRNAMGWYRQAPRKERELVAAITWPGGTTYYADSVKGRFTISRDNAKNTVYLQMISLKPEDTAVYYSAADEYGPHTFSPEYDSWGQGTQVTVSS”, “low polyreactivity”.
Turning to “QVQLVESGGGLVQAGGTLRLSCAASGFTFSINAMGWSRQAPGKERELVAGISWSGGITYYADSVKGRFTISRDNAKNTVYLQMNSLKPEDTAVYYCNTDYGLTTPVVWDDYWGQGTQVTVSS”, the “polyreactivity (PSR sort gate)” value is given as “low polyreactivity”.
